Laboratory results as given in patent US20050202010A1, “Method of treatment and bioassay involving macrophage migration inhibitory factor (MIF) as cardiac-derived myocardial depressant factor” (priority 2003, published 2005).
Values joined by “and” are separate entries in the source; they are usually repeats but may differ in a detail not shown here. Identical values can stand only once.

How the values were obtained:
C57BL/6 hearts = assay: Langendorff, rhMIF added to perfusate, C57BL/6 hearts; parameters: species or system mouse; LVP / TPP / RT90 / Max + d / Max − d: unit not given beside the values
[1] = test system: isolated wild type hearts; assay: Langendorff perfusion with rMIF, wild type hearts; parameters: species or system mouse; details: WT + rMIF 20 ng/ml
Method: Ex vivo cardiac function determination by Langendorff Mouse heart function was determined using the Langendorff assay procedure. Briefly, 200 Units heparin sulfate were injected intraperitoneally and the mice were sacrificed 20 minutes later. The heart was immediately removed and placed on ice in Krebs-Henseleit Buffer ([…], 118 mM NaCl, 4.7 mM KCL, 1.2 mM KH2PO4, 1.2 mM MgSO4, 2.5 mM CaCl2, 11.1 mM glucose, pH 7.4, which was prepared fresh with demineralized, deionized water and bubbled with 95% O2 and 5% CO2(pO2 590 mmHg, pCO2 38 mmHg)). The aorta was cannulated with PE50 tubing, the heart perfused in a retrograde manner through the aortic root with pre-filtered, oxygenated Krebs-Henseleit Buffer at a constant flow rate of 1.5 ml/minute (constant temperature of 37° C., 100 ml recirculating volume). The heart was placed in a water-jacketed chamber to maintain constant temperature and humidity. Intramedic polyethylene tubing (PE60), connected to a Statham pressure transducer, was inserted into the left ventricle (LV) to measure LV pressure. Temperature was monitored using a 27 gauge thermistor needle inserted into the LV muscle. […] Following stabilization, LV pressure and its first derivative (dP/dt), heart rate, and coronary perfusion were measured simultaneously with a multi-channel Grass 7D polygraph (Grass Instruments, Quincy, Mass.). Ventricular performance as a function of coronary perfusion was determined for all hearts by plotting peak systolic LV pressure and ±dP/dtmax values against incremental increases in coronary flow rate.
MIF has direct cardiodepressant effects in TNFR−/− mice to the same extent as in WT mice.

[2] = test system: spontaneously beating normal mouse hearts (endotoxin resistant C3H/HeJ); assay: Langendorff preparation, hearts perfused with rMIF (C3H/HeJ); details: 20 ng/ml rMIF, 1.5 ml/m
Method: (§1) Determination of cardiac function in response to rMIF. C57BL/6J and C3H/HeJ mice were used in the Langendorff assays. Briefly, 200 U heparin sulfate was given i.p., the mice sacrificed 20 m later, and the heart immediately removed and placed on ice in Krebs-Hanseleit Buffer ([…], 118 mM NaCl, 4.7 mM KCL, 1.2 mM KH2PO4, 1.2 mM MgSO4, 2.5 mM CaCl2, 11.1 mM glucose, pH 7.4, which was prepared fresh with demineralized, deionized water and bubbled with 95% O2 and 5% CO2 (PO2 590 mmHg, pCO2 38 mmHg)). The aorta was cannulated with PE50 tubing, the heart perfused in a retrograde manner through the aortic root with prefiltered, oxygenated Krebs-Hanseleit Buffer at a constant flow rate of 1.5 ml/m (T 37° C.) and a recirculating volume of 100 ml. The heart was placed in a water-jacketed chamber to maintain constant temperature and humidity. PE60 intratnedic polyethylene tubing was connected to a Statham pressure transducer inserted into the left ventricle (LV) to measure LV pressure. Temperature was monitored using a 27 G thertnistor needle inserted into the LV muscle. […] Following stabilization, LV pressure and its first derivative (dP/dt), heart rate, and coronary perfusion were measured simultaneously with a multichannel Grass 7D polygraph (Grass Instruments, Quincy, M A). Cardiac function for all hearts was determined by plotting peak systolic LV pressure and ±dP/dt,Ia, values against changes in coronary flow rate.
(§2) MIF induces systolic and diastolic cardiac dysfunction. […] Responses to MIF were determined in hearts from both C57BL/6J mice, and C3H/HeJ mice. C3H/HeJ mice are resistant to endotoxin (41-43), therefore controlling for the possibility that any depression observed might be due to trace endotoxin in the perfusate. Table 2 illustrates the responses of both mouse strains to retrograde aortic perfusion at 1.5 ml/m with control perfusate or perfusate containing 20 ng/ml recombinant MIF. Perfusion with MIF led to a significant decrease in LVP, +dP/dtmax, and −dP/dt max in both mouse strains. FIG. 4 illustrates the effect of MIF over a range of coronary flow rates. […]

[3] = test system: spontaneously beating normal mouse hearts (C57BL/6J); assay: Langendorff preparation, hearts perfused with rMIF (C57BL/6J); details: C57BL/6J hearts, 20 ng/ml rMIF, 1.5 ml/m
Method: as §1, §2

[4] = C57BL/6 + rhMIF in perfusate, n = 3
[5] = C57BL/6 + rhMIF, single hearts by date and mean (x), n 3
[6] = C57BL/6 + rhMIF, single hearts by date and mean (x), n 3, mean

B1: rMIF: recombinant human macrophage migration inhibitory factor added to the heart perfusate at 20 ng/ml (protein, UniProt P14174 2-115, looked up)
Macrophage migration …: PMFIVNTNVPRASVPDGFLSELTQQLAQATGKPPQYIAVHVVPDQLMAFGGSSEPCALCSLHSIGKIGGAQNRSYSKLLCGLLAERLRISPDRVYINYYDMNAANVGWNNSTFA
Coronay Perfusion Pressue (C57BL/6 hearts; [4]): 86.0 ± 23 mmHg | Coronay Vascular Resistance (C57BL/6 hearts; [4]): 57.3 ± 7.7 mmHg | Heart Rate (C57BL/6 hearts; [4]): 318 ± 2 bpm | Left Ventricular Pressure (C57BL/6 hearts; [4]): 52.7 ± 6.6 mmHg | Time to 90% Relaxation (C57BL/6 hearts; [4]): 73.3 ± 4.4 ms | Time to Max +dP/dt (C57BL/6 hearts; [4]): 47.0 ± 2.1 ms | Time to Max −dP/dt (C57BL/6 hearts; [4]): 49.0 ± 1.5 ms | Time to Peak Pressue (C57BL/6 hearts; [4]): 74.0 ± 3.1 ms | dP40 (C57BL/6 hearts; [4]): 1200 ± 115 mmHg/sec | −dP/dt max (C57BL/6 hearts; [4]): 1233 ± 159 mmHg/sec | +dP/dt (C57BL/6 hearts; [5]): 1650 and 1100 | DR (C57BL/6 hearts; [5]): 1.1 and 1.158 and 1.2 | HR (C57BL/6 hearts; [5]): 320 and 315 | LVP (C57BL/6 hearts; [5]): 62 and 40 and 56 | Max + d (C57BL/6 hearts; [5]): 48 and 50 and 43 | Max − d (C57BL/6 hearts; [5]): 52 and 48 and 47 | RT90 (C57BL/6 hearts; [5]): 80 and 75 and 65 | TPP (C57BL/6 hearts; [5]): 72 and 80 and 70 | dP40 (C57BL/6 hearts; [5]): 1400 and 1000 and 1200 | −dP/dt (C57BL/6 hearts; [5]): 950 and 1250 | DR (C57BL/6 hearts; [6]): 1.153 | HR (C57BL/6 hearts; [6]): 318.3333 | LVP (C57BL/6 hearts; [6]): 52.67 | Max + d (C57BL/6 hearts; [6]): 47 | Max − d (C57BL/6 hearts; [6]): 49 | RT90 (C57BL/6 hearts; [6]): 73.33 | TPP (C57BL/6 hearts; [6]): 74 | −dP/dt (C57BL/6 hearts; [6]): 1233.333 | +dP/dt max ([1]; n = 5): 1400 ± 158 mmHg/sec | CPP ([1]; n = 5): 84.8 ± 8.6 mmHg | CVR ([1]; n = 5): 56.5 ± 5.7 mmHg | DR ([1]; n = 5): 1.32 ± 0.06 | HR ([1]; n = 5): 338 ± 10 bpm | RT90 ([1]; n = 5): 75.2 ± 2.9 ms | TPP ([1]; n = 5): 71.6 ± 1.6 ms | Time to Max +dP/dt ([1]; n = 5): 49.2 ± 0.5 ms | Time to Max −dP/dt ([1]; n = 5): 52.4 ± 1.7 ms | dP40 ([1]; n = 5): 1240 ± 174 mmHg/sec | −dP/dt max ([1]; n = 5): 1070 ± 146 mmHg/sec | LVP ([1]; n = 5, mean ± SE): 55.6 ± 5.9 mmHg | +dP/dt max ([2]; n = 7): 1800 ± 106 mm Hg/see | −dP/dt max ([2]; n = 7): 1343 ± 138 mm Hg/sec | LVP ([2]; n = 7, mean peak): 75.2 ± 5.5 mm Hg | +dP/dt max ([3]; n = 10): 1920 ± 89 mm Hg/see | −dP/dt max ([3]; n = 10): 1545 ± 122 mm Hg/sec | LVP ([3]; n = 10, mean peak): 77.9 ± 5.1 mm Hg
